Assay results from US20240288446A1, “METHOD FOR DIAGNOSING FIBRINOLYTIC INSUFFICIENCY RELATED TO NEUTROPHIL EXTRACELLULAR TRAPS” (Hôpitaux Universitaires de Strasbourg, priority 2019, published 2024).

System: septic shock plasma euglobulin fraction on fibrin-bound tPA
Experiment: Plasmin formation on tPA-fibrin surfaces from euglobulin fraction of septic shock plasma supplemented with plasminogen
Format: biochemical, human
Details: plasminogen normalized to 1.5 μM
Procedure: FIG. 5 represents the Fibrinolytic activity of plasma isolated from septic shock. The fibrinolytic activity of plasma was tested by incubating the corresponding euglobulin fraction with fibrin surfaces to which tPA (50 iu/ml) was previously bound. The euglobulin fraction contains plasminogen and plasminogen fragments bearing K1, K4 and K5 as identified by mass spectrometry (see text and Supplemental file). The amount of plasmin formed was quantified by measuring the change in absorbance at A405 nm using a chromogenic substrate selective for plasmin as indicated in FIG. 3. […]
Plasminogen was quantified with a functional activity assay as described with modifications.(41) Briefly, plasmas were diluted 1:50 in assay buffer (Phosphate 80 mM, NaCl 50 mM, BSA 2 mg/ml), supplemented with 75 i.u./ml urokinase, 1 mM tranexamic acid and 0.75 mM of the plasmin-selective chromogenic substrate in a final volume of 50 μl. […] Plasminogen fragments present in plasma were initially detected by Western blot as indicated above. […] Plasmin formation on fibrin matrices was measured using the euglobulin fraction from healthy control and patient plasmas as source of plasminogen as indicated above. […] Kinetics of plasminogen transformation into plasmin was followed during 1 h by measuring the release of pNA at A405 nm and the initial velocity of the reactions were calculated as indicated above. […]

B1: purified plasminogen: Human Glu-plasminogen, purified, over 99% pure; 92-kDa single-chain proenzyme (SEQ ID NO 1) (protein, listed as Homo sapiens)
chain: EPLDDYVNTQGASLFSVTKKQLGAGSIEECAAKCEEDEEFTCRAFQYHSKEQQCVIMAENRKSSIIIRMRDVVLFEKKVYLSECKTGNGKNYRGTMSKTKNGITCQKWSSTSPHRPRFSPATHPSEGLEENYCRNPDNDPQGPWCYTTDPEKRYDYCDILECEEECMHCSGENYDGKISKTMSGLECQAWDSQSPHAHGYIPSKFPNKNLKKNYCRNPDRELRPWCFTTDPNKRWELCDIPRCTTPPPSSGPTYQCLKGTGENYRGNVAVTVSGHTCQHWSAQTPHTHNRTPENFPCKNLDENYCRNPDGKRAPWCHTTNSQVRWEYCKIPSCDSSPVSTEQLAPTAPPELTPVVQDCYHGDGQSYRGTSSTTTTGKKCQSWSSMTPHRHQKTPENYPNAGLTMNYCRNPDADKGPWCFTTDPSVRWEYCNLKKCSGTEASVVAPPPVVLLPDVETPSEEDCMFGNGKGYRGKRATTVTGTPCQDWAAQEPHRHSIFTPETNPRAGLEKNYCRNPDGDVGGPWCYTTNPRKLYDYCDVPQCAAPSFDCGKPQVEPKKCPGRVVGGCVAHPHSWPWQVSLRTRFGMHFCGGTLISPEWVLTAAHCLEKSPRPSSYKVILGAHQEVNLEPHVQEIEVSRLFLEPTRKDIALLKLSSPAVITDKVIPACLPSPNYVVADRTECFITGWGETQGTFGAGLLKEAQLPVIENKVCNRYEFLNGRVQSTELCAGHLAGGTDSCQGDSGGPLVCFEKDKYILQGVTSWGLGCARPNKPGVYVRVSRFVTWIEGVMRNN
With B1 the “amount of plasmin formed after plasminogen supplementation” value (plasma samples S1, S3, S5) was “increased with a trend to normality” and the “amount of plasmin formed after plasminogen supplementation” value (plasma samples S2, S4, S6) was “insufficient or scant response”.
